From US20140020131

Assays:
[1] = target: T1, engineered MS26+ endonuclease, intron-containing gene (ST-LS1 intron) (synthetic construct (Chlamydomonas reinhardtii I-CreI derived)?) (UniProt P05725); test: cell_activity; conditions: 3 of 257 T0 maize plants
T1 sequence: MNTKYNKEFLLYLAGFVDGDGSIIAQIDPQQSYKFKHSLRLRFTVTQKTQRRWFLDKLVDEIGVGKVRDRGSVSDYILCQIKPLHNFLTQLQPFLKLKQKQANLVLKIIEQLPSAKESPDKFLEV

[2] = test system: engineered MS26++ endonuclease (I-CreI-based) (synthetic construct (Chlamydomonas reinhardtii I-CreI derived)?); test: cell_activity; conditions: 15 mutations among 344 T0 maize plants as printed; Agrobacterium

GATGGTGACGTACGTGCCCTAC (double strand) [TS-MS26 target site (maize MS26 exon 5)]
activity (% T0 plants mutated) [1]: 1.2
activity (% T0 plants mutated) [2]: 5.8
